These results are taken from PMC6191937 (Cell, 2018).

The target in the assay is T1, EGFP-MOV10 (human, UniProt Q9HCE1 1-1003).
T1 sequence: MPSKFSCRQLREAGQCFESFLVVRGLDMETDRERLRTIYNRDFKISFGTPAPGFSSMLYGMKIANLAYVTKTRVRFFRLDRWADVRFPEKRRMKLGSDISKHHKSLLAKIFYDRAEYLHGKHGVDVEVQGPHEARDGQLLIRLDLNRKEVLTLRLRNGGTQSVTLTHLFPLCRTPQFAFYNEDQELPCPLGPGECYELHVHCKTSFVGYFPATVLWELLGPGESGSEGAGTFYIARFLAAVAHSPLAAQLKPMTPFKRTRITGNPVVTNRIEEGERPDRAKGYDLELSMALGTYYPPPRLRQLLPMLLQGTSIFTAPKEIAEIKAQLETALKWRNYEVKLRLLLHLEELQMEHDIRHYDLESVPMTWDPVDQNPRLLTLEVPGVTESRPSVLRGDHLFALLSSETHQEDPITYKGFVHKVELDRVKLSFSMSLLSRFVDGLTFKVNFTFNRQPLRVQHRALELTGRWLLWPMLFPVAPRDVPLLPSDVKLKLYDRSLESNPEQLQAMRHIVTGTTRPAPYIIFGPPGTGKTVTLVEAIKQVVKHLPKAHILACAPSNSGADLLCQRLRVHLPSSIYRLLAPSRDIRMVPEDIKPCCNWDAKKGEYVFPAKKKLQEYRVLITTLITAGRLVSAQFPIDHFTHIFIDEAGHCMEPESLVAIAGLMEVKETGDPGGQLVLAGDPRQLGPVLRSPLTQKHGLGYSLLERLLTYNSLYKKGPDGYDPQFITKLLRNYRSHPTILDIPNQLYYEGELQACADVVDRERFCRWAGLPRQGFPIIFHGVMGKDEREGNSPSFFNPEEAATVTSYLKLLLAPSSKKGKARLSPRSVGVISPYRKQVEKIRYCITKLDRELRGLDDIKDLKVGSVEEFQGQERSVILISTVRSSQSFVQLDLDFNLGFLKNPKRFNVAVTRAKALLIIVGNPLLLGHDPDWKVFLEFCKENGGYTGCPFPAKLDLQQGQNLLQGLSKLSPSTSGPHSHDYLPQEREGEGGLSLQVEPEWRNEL
The assay can be described thus: co-IP.

B1: TUT4 (natural protein)
chain: MEESKTLKSENHEPKKNVICEESKAVQVIGNQTLKARNDKSVKEIENSSPNRNSSKKNKQNDICIEKTEVKSCKVNAANLPGPKDLGLVLRDQSHCKAKKFPNSPVKAEKATISQAKSEKATSLQAKAEKSPKSPNSVKAEKASSYQMKSEKVPSSPAEAEKGPSLLLKDMRQKTELQQIGKKIPSSFTSVDKVNIEAVGGEKCALQNSPRSQKQQTCTDNTGDSDDSASGIEDVSDDLSKMKNDESNKENSSEMDYLENATVIDESALTPEQRLGLKQAEERLERDHIFRLEKRSPEYTNCRYLCKLCLIHIENIQGAHKHIKEKRHKKNILEKQEESELRSLPPPSPAHLAALSVAVIELAKEHGITDDDLRVRQEIVEEMSKVITTFLPECSLRLYGSSLTRFALKSSDVNIDIKFPPKMNHPDLLIKVLGILKKNVLYVDVESDFHAKVPVVVCRDRKSGLLCRVSAGNDMACLTTDLLTALGKIEPVFIPLVLAFRYWAKLCYIDSQTDGGIPSYCFALMVMFFLQQRKPPLLPCLLGSWIEGFDPKRMDDFQLKGIVEEKFVKWECNSSSATEKNSIAEENKAKADQPKDDTKKTETDNQSNAMKEKHGKSPLALETPNRVSLGQLWLELLKFYTLDFALEEYVICVRIQDILTRENKNWPKRRIAIEDPFSVKRNVARSLNSQLVYEYVVERFRAAYRYFACPQTKGGNKSTVDFKKREKGKISNKKPVKSNNMATNGCILLGETTEKINAEREQPVQCDEMDCTSQRCIIDNNNLLVNELDFADHGQDSSSLSTSKSSEIEPKLDKKQDDLAPSETCLKKELSQCNCIDLSKSPDPDKSTGTDCRSNLETESSHQSVCTDTSATSCNCKATEDASDLNDDDNLPTQELYYVFDKFILTSGKPPTIVCSICKKDGHSKNDCPEDFRKIDLKPLPPMTNRFREILDLVCKRCFDELSPPCSEQHNREQILIGLEKFIQKEYDEKARLCLFGSSKNGFGFRDSDLDICMTLEGHENAEKLNCKEIIENLAKILKRHPGLRNILPITTAKVPIVKFEHRRSGLEGDISLYNTLAQHNTRMLATYAAIDPRVQYLGYTMKVFAKRCDIGDASRGSLSSYAYILMVLYFLQQRKPPVIPVLQEIFDGKQIPQRMVDGWNAFFFDKTEELKKRLPSLGKNTESLGELWLGLLRFYTEEFDFKEYVISIRQKKLLTTFEKQWTSKCIAIEDPFDLNHNLGAGVSRKMTNFIMKAFINGRKLFGTPFYPLIGREAEYFFDSRVLTDGELAPNDRCCRVCGKIGHYMKDCPKRKSLLFRLKKKDSEEEKEGNEEEKDSRDVLDPRDLHDTRDFRDPRDLRCFICGDAGHVRRECPEVKLARQRNSSVAAAQLVRNLVNAQQVAGSAQQQGDQSIRTRQSSECSESPSYSPQPQPFPQNSSQSAAITQPSSQPGSQPKLGPPQQGAQPPHQVQMPLYNFPQSPPAQYSPMHNMGLLPMHPLQIPAPSWPIHGPVIHSAPGSAPSNIGLNDPSIIFAQPAARPVAIPNTSHDGHWPRTVAPNSLVNSGAVGNSEPGFRGLTPPIPWEHAPRPHFPLVPASWPYGLHQNFMHQGNARFQPNKPFYTQDRCATRRCRERCPHPPRGNVSE
As for B1, the “fold enrichment in the co-IP relative to TUT7” value is approximately 10 fold.
